Test results from the supplement of paper PMC9876800.

Test system: peptide library, one residue held at a place counted from the S/T acceptor
Assay: relative phosphorylation of the sub-library (ratio to the mean residue at this position); higher = residue favoured
Details: human
In short: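 Relative sub-library phosphorylation is a ratio to the mean residue at the same position. Purified recombinant kinases were incubated under kinase-specific conditions with biotinylated degenerate peptide sub-libraries, each fixing one residue at one position around a central Ser/Thr, using 50 μM peptide and 50 μM ATP spiked with γ-32P-ATP for 90 min. Spots captured on streptavidin membranes were phosphorimaged and quantified by densitometry.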

Sequence of CSNK1G2, construct: aa43-353 (P78368 43-353, looked up): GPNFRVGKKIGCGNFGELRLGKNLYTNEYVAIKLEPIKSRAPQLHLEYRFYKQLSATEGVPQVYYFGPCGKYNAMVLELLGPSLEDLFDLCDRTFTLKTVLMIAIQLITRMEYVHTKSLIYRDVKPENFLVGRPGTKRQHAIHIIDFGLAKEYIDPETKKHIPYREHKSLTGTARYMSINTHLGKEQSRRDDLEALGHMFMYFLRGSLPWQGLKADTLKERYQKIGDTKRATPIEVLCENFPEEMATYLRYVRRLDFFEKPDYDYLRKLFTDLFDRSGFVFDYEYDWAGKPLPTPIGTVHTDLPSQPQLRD

CSNK1G2, construct: aa43-353 (from UniProt P78368)
relative phosphorylation
Details | at +1 | at +2 | at +3 | at +4 | at -1 | at -2 | at -3 | at -4 | at -5
A fixed | 0.721 | 0.84 | 0.944 | 0.864 | 1.07 | 1.17 | 0.642 | 1.13 | 0.845
D fixed | 0.589 | 0.43 | 1.14 | 1.31 | 1.52 | 1.2 | 4.54 | 1.46 | 2.48
E fixed | 1 | 0.999 | 0.339 | 1.25 | 2.85 | 4.44 | 2.79 | 1.85 | 1.89
F fixed | 0.973 | 1.33 | 1.29 | 0.996 | 0.834 | 0.524 | 0.55 | 0.896 | 0.82
G fixed | 0.636 | 0.516 | 1.23 | 0.746 | 0.797 | 0.686 | 0.705 | 0.767 | 0.79
H fixed | 0.986 | 1.21 | 1.59 | 0.806 | 0.904 | 0.682 | 0.652 | 0.861 | 0.886
I fixed | 1.88 | 1.32 | 1.08 | 0.961 | 0.902 | 0.666 | 0.465 | 0.694 | 0.875
K fixed | 0.517 | 0.942 | 0.54 | 0.702 | 0.774 | 0.659 | 0.891 | 0.877 | 0.968
L fixed | 1.55 | 0.605 | 0.944 | 1 | 1.02 | 0.656 | 0.458 | 0.842 | 0.76
M fixed | 1.36 | 1.3 | 1.09 | 1.03 | 0.484 | 0.594 | 0.561 | 0.817 | 0.799
N fixed | 0.672 | 0.875 | 0.732 | 0.797 | 0.807 | 1.18 | 0.766 | 0.858 | 0.859
P fixed | 0.44 | 0.537 | 0.738 | 0.947 | 0.965 | 0.876 | 0.577 | 1.05 | 0.745
Q fixed | 0.592 | 0.618 | 0.61 | 0.936 | 1.03 | 1.04 | 0.707 | 1.03 | 1
R fixed | 0.813 | 0.996 | 0.687 | 0.684 | 1.11 | 0.695 | 0.895 | 1.02 | 0.961
V fixed | 1.94 | 1.46 | 1.29 | 1.17 | 0.766 | 0.813 | 0.44 | 0.733 | 0.686
W fixed | 0.852 | 1.34 | 1.27 | 1.35 | 0.589 | 0.5 | 0.652 | 1.15 | 0.821
Y fixed | 1.47 | 1.68 | 1.49 | 1.45 | 0.569 | 0.619 | 0.711 | 0.971 | 0.816
pThr fixed | 1.33 | 1.36 | 2.58 | 3.98 | 3.89 | 9.46 | 62.6 | 8.08 | 4.7
pTyr fixed | 2.52 | 5.33 | 19.2 | 6.91 | 2.93 | 6.96 | 8.28 | 6.71 | 6.32
